From article PMC3327659

Key:
[1] = target: T1, DR2539 (Deinococcus radiodurans R1 (ATCC13939)) (UniProt Q9RRF3); test: EMSA; conditions: 30 mM Tris-HCl pH 6.8, 50 mM NaCl, 5% glycerol, 50 ug/mL calf thymus DNA, 50 ug/mL BSA, Mn2+ or Fe2+ (varied), 10 nM FITC-DNA, 30 min at 4 C; 5% native PAGE
T1 sequence: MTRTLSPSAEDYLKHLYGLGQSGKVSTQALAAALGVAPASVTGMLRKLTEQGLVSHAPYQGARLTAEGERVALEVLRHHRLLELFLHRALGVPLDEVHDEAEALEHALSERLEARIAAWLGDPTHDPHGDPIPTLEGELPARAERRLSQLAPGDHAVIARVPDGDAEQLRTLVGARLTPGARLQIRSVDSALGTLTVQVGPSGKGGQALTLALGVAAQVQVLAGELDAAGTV

[2] = target: T2, DR0865 (Fur homologue) (Deinococcus radiodurans R1?) (UniProt Q9RW04); test: EMSA; conditions: 30 mM Tris-HCl pH 6.8, 50 mM NaCl, 5% glycerol, 50 ug/mL calf thymus DNA, 50 ug/mL BSA, Mn2+ or Fe2+ (varied), 10 nM FITC-DNA, 30 min at 4 C; 5% native PAGE
T2 sequence: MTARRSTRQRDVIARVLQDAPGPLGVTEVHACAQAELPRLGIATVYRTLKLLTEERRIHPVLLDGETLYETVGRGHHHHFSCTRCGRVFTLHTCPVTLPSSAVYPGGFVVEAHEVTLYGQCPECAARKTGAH

Sequence	binding [1]	binding [2]
GAGCCTCTAGCAAATATGTGACAGCACCCTGAAAACCAGATGACCCAGCGTGACGGAATCTGACTGGATCTTGGGAAAGAGGCATTTTTCACAAAAAAGTCGGCCTTTAAGACGAACTCAAGCCCACGCCGTTGGACA (double strand) [p1709a (mntH promoter lacking inverted repeat)]	no binding	–
CAGGCTGGGAGAACGGGAATCCATGGCCTTTATTTTAGGCGCGACTAAAATAGTTGTCCAACGGCGTGGGCTTGAGTTCGTCTTAAAGGCCGACTTTTTTGTGAAAAATGCCTCTTTCCCAAGATCCAGTCAGATTCCGTCACGCTGGGTCATCTGGTTTTCAGGGTGCTGTCACATATTTGCTAGAGGCTC (double strand) [p1709b (mntH promoter with inverted repeat)]	binds	no binding
